Numbered stars: 1 amine (or outer) side, 2 acyl side, 3 side chain; on linkers, the order of the positions; unused ones are H or OH. Square brackets hold non-standard residues; d marks the D form. * marks the point of attachment. εLys = N[C@@H](CCCCN[*:1])C(=O)[*:2]; Palmitoyl = CCCCCCCCCCCCCCCC(=O)*; Cit = NC(=O)NCCC[C@H](N)C(=O)O; Ahx = NCCCCCC(=O)O; βAla = NCCC(=O)O
Key:
[1] = target: T1, PAR2 (Homo sapiens, UniProt P55085); assay: Calcium flux assay, antagonist activity against SLIGRL in SW620 cells endogenously expressing PAR2; type: cell-based; conditions: 1 min pretreatment, 8 μM SLIGRL agonist
T1 construct: SW620 human colon adenocarcinoma cells that endogenously express PAR2; endogenous in cells; host or cells: SW620 human colon adenocarcinoma cells
T1 sequence (P55085 26-397): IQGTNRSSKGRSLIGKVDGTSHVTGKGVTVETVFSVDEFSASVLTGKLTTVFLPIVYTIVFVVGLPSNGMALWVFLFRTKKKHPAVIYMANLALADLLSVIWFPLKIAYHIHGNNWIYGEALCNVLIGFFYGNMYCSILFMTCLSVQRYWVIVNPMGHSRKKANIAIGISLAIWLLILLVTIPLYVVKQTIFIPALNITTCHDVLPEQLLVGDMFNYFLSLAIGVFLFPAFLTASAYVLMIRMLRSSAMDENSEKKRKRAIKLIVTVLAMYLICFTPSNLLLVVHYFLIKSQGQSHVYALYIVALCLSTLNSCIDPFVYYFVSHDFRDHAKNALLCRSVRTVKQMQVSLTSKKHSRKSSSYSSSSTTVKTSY
Experimental: Table 2 provides the antagonist activity for the resulting palmitoylated peptides (SEQ ID NO: 1-11, 13-41, and 70) of Table 1. Table 2 also provides the antagonist activity for the resulting myristoylated peptide SEQ ID NO: 12 of Table 1. Antagonist activity of the peptides were measured using calcium flux assays with SW620 human colon adenocarcinoma cells that endogenously express PAR2. The calcium signal of […] SLIGRL (SEQ ID NO: 73) following 1 min pretreatment with 3 μM or 10 μM of palmitoylated peptides. Final concentration of DMSO vehicle was 0.2%. Antagonist activity of 3 μM and 10 μM peptides against 8 μM SLIGRL (SEQ ID NO: 73; a known PAR2 agonist) was measured by maximal calcium flux. Experiments were repeated at least 2-3 times each and gave similar results.

[2] = tested on: db/db mouse; assay: Obese-diabetic (db/db) mouse model, daily SC treatment for 3 weeks; type: in vivo; conditions: db/db mice, 10 mg/kg SC daily, over 3 weeks
Experimental: FIGS. 1A to 1B. Male obese-diabetic (db/db) mice, 6-8 weeks of age were purchase from Charles River Labs. The db/db mouse is a […] animal which serves as a model for diabetes, obesity and dyslipidemia. Animals were randomized according to blood glucose and body weight on day −2 and were allowed to eat a normal chow diet ad libitum. Treatment was initiated from day 0 with mice receiving daily subcutaneous (SC) injections (5 mL/kg) at 7-10 AM. HbA1c was monitored on days 0, 7, 14 and 21. Mice (n=10) were treated daily with either 10 mg/kg N-palmitoylated-SEQ70 (PZ-235) or vehicle (“Veh”). […] HbA1c levels reflect long-term blood glucose levels. […]
FIG. 2. Diabetic mice from the experiment in FIGS. 1A and 1B had their morning blood glucose measured thrice weekly.
FIG. 3. Diabetic mice had their blood glucose profile monitored on days 1, 8 and 22. […]
FIGS. 5A to 5B. Diabetic mice had their plasma triglyceride levels measured at baseline and after 3 weeks of treatment with PZ-235 versus vehicle.
FIG. 6. Diabetic mice had their liver triglyceride levels measured after 3 weeks of treatment with PZ-235 versus vehicle. At termination of the 3 week experiment, livers were isolated from the diabetic mice, snap frozen and liver triglycerides measured.

Row | Compound | Max (% Inh), maximal calcium flux ([1]; 3 uM peptide) | Max (% Inh), maximal calcium flux ([1]; 10 uM peptide) | food intake versus vehicle group [2] | weight gain versus vehicle group [2]
1 | 1 (GHENSEKKRKQAIK) [compound 1] | 33% | 85% |  | 
2 | 2 (GDHNSEKKRKQAIK) [compound 2] | 23% | 78% |  | 
3 | 3 (DSEKKRKQAIKLI) [compound 3] | 49% | 89% |  | 
4 | 4 (RSSAIDENSEKKRKSAIK) [compound 4] | 24% | 82% |  | 
5 | 5 (AIDENSEKKFKSAIKL) [compound 5] | 18% | 32% |  | 
6 | 7 (Pal-AIHHDSE[dP]KRKSAIKL-NH2) [compound 7] | 50% | 84% |  | 
7 | 8 (Pal-AIHHDSE[dP]RKSAAKL-NH2) [compound 8] | 16% | 18% |  | 
8 | 9 (Pal-GLHHDSEPKRKSAIKL[dI]-NH2) [compound 9] | 75% | 95% |  | 
9 | 11 (Pal-PLHHDSEPKR[dK]SAIK[dL]-NH2) [compound 11] | 31% | 95% |  | 
10 | 14 (Pal-[εLys]LDENSEKKF[dK]SAIKL[dV]-NH2) [compound 14] | 8% | 26% |  | 
11 | 16 (Pal-GLHHDSEPKR[dK][βAla]IK[dV]-NH2) [compound 16] | 17% | 60% |  | 
12 | 17 (Palmitoyl-[Ahx]LHHDSEPKR[dK]SAIK[dV]-NH2) [compound 17] | 10% | 66% |  | 
13 | 20 (Pal-[εLys]AIDENSEKKFKSAIKL-NH2) [compound 20] | 17% | 86% |  | 
14 | 25 (AMDENSEKKYKSAIKL) [compound 25] | 23% | 29% |  | 
15 | 30 (GLDENSEPKRKSAIKLI) [compound 30] | 6% | 0% |  | 
16 | 31 (GDENHEKKRKQAIK) [compound 31] | 38% | 65% |  | 
17 | 32 (PGDENSEKPKRKQAIK) [compound 32] |  | 93% |  | 
18 | 33 (GPDENSEKKPRKQAIK) [compound 33] | 23% | 93% |  | 
19 | 34 (Palmitoyl-GDENSEKK[Cit]KQAIK-NH2) [compound 34] | 23% | 93% |  | 
20 | 35 (Pal-GDENSEKKRKSAIK[dA]-NH2) [compound 35] | 23% | 65% |  | 
21 | 36 (GDENSEKKRKQAIKL) [compound 36] | 65% | 65% |  | 
22 | 37 (GDENSEKKRKQAIKLI) [compound 37] | 0% | 65% |  | 
23 | 38 (GDENSEKKRKQAIK) [compound 38] | 23% | 65% |  | 
24 | 39 (GDENSEKRWLWAIK) [compound 39] | 23% | 93% |  | 
25 | 40 (GDENSEKKRKWAIK) [compound 40] | 38% | 93% |  | 
26 | 41 (MDENSEKKRKRAIK) [compound 41] | 38% | 65% |  | 
27 | CCCCCCCCCCCCCCCC(=O)N[C@@H](CCCNC(=N)N)C(=O)N[C@@H](CO)C(=O)N[C@@H](CO)C(=O)N[C@@H](C)C(=O)N[C@@H](CCSC)C(=O)N[C@@H](CC(=O)O)C(=O)N[C@@H](CCC(=O)O)C(=O)N[C@@H](CC(N)=O)C(=O)N[C@@H](CO)C(=O)N[C@@H](CCC(=O)O)C(=O)N[C@@H](CCCCN)C(=O)N[C@@H](CCCCN)C(=O)N[C@@H](CCCNC(=N)N)C(=O)N[C@@H](CCCCN)C(=O)N[C@@H](CO)C(=O)N[C@@H](C)C(=O)N[C@H](C(=O)N[C@@H](CCCCN)C(N)=O)[C@@H](C)CC [SEQ ID NO 70] |  |  | did not vary significantly | did not vary significantly

From patent US11732027B2, “Protease-activated receptor-2 modulators” (Oasis Pharmaceuticals, LLC, priority 2015, dated 2023)
